We go through 72 variants from the supplement of paper PMC7125110.

± gives the standard error. Fewer inactive variants are shown than the library holds.

The chains are these.
B1: glmS ribozyme (parent)
chain: AUAAAAGCGCCAGAACUACAGAAAUGUAGUUGACGAGGAGGAGGUUUAUCGAAUUUUCGGCGGAUGCCUCCAAA

In one data set the parent is B1. Nature of the data set: self-cleavage kobs at 640 uM GlcN6P; higher = faster cleavage; RNA array. The conditions noted are these: with glucosamine-6-phosphate. An outline of the steps:
(§1)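 A hybridised Cy3 probe tracked barcoded ribozyme variants, transcribed in situ by E. coli RNA polymerase on sequenced MiSeq chips, at 37 °C. The variants received 40 μM to 10 mM glucosamine-6-phosphate in HEPES/KCl/Mg(OAc)2 buffer. kobs came from decay fits and kcat and KM from weighted Michaelis–Menten fits.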
As for A15U G29A C68U, the “self-cleavage kobs at 640 uM GlcN6P” value worked out at 5.07e-05 ± 1.3e-05 s⁻¹.
On the same count and under the same terms, the figure for A36G A39G G40U is below 1e-05 s⁻¹; for U57A G62A it is below 1e-05 s⁻¹.
Still for that read-out and setting: the value for A39U A48G G60C was below 1e-05 s⁻¹; that for A15U C16A U47A C61G C68G was 8.84e-05 ± 3.3e-05 s⁻¹.
Take A14U A33U C50G G66U: the “self-cleavage kobs at 640 uM GlcN6P” value was found to be 0.0013 ± 0.00063 s⁻¹.
For the variant A15G C58A C68G, the “self-cleavage kobs at 640 uM GlcN6P” value stood at 0.000265 ± 8.6e-05 s⁻¹.
As for C34A G41C C70U, the “self-cleavage kobs at 640 uM GlcN6P” value is below 1e-05 s⁻¹.
With A36C U57C C67U, the “self-cleavage kobs at 640 uM GlcN6P” value is below 1e-05 s⁻¹.
Consider C8U A33C G35C U56G U65C, for which the “self-cleavage kobs at 640 uM GlcN6P” value is below 1e-05 s⁻¹.
With A14G A42G C67A, the “self-cleavage kobs at 640 uM GlcN6P” value came to 0.01 ± 0.0028 s⁻¹.
Turning to G9U U65C, the “self-cleavage kobs at 640 uM GlcN6P” value is below 1e-05 s⁻¹.
With G35U C58A A64U, the “self-cleavage kobs at 640 uM GlcN6P” value was below 1e-05 s⁻¹.
Same read-out and setting: the value for A14G G41U C71U was 0.000155 ± 4.4e-05 s⁻¹; that for G21A C70U was 0.00594 ± 0.0022 s⁻¹; that for G7A G37A G66U was below 1e-05 s⁻¹.
With A42C U46G C71G, the “self-cleavage kobs at 640 uM GlcN6P” value is below 1e-05 s⁻¹.
The same measure, in the same setting: the figure for G43A U57G U69A is below 1e-05 s⁻¹; for G13U G40A it is 5.97e-05 ± 1.3e-05 s⁻¹; for C8G U30C A64C it is below 1e-05 s⁻¹.
Same read-out and setting: the value for C10A A15C U45C was below 1e-05 s⁻¹; that for U47A C50G C67U C71A was 0.000221 ± 0.00011 s⁻¹; that for A14U A36U U56G C67G was 0.000671 ± 0.0003 s⁻¹.
With G37C G40A C50G, the “self-cleavage kobs at 640 uM GlcN6P” value is below 1e-05 s⁻¹.
Regarding C34G G63A C67A, the “self-cleavage kobs at 640 uM GlcN6P” value was below 1e-05 s⁻¹.
As for C11U C16U A64U C71G, the “self-cleavage kobs at 640 uM GlcN6P” value was 0.0021 ± 0.00087 s⁻¹.
C16G G29U G35A: the “self-cleavage kobs at 640 uM GlcN6P” value is below 1e-05 s⁻¹.
As to U31G G44A U46A G62C, the “self-cleavage kobs at 640 uM GlcN6P” value is below 1e-05 s⁻¹.

The variants in the next data set derive from B1. The data set can be described thus: self-cleavage kobs at 2500 uM GlcN6P; higher = faster cleavage; RNA array. The following applies: with glucosamine-6-phosphate. An outline of the steps: as §1
With A15U G29A C68U, the “self-cleavage kobs at 2500 uM GlcN6P” value was determined as 7.12e-05 ± 2.1e-05 s⁻¹.
Still for that read-out and setting: the value for C10U G43A C50U G51C was below 1e-05 s⁻¹; that for A36G G43A A48U A52G was below 1e-05 s⁻¹.
Turning to G40C G43A A48U A64C U69A, the “self-cleavage kobs at 2500 uM GlcN6P” value was below 1e-05 s⁻¹.
Take G40C G43U U56A: the “self-cleavage kobs at 2500 uM GlcN6P” value is below 1e-05 s⁻¹.
For the variant G37C U45G U46G G60C A64C, the “self-cleavage kobs at 2500 uM GlcN6P” value is below 1e-05 s⁻¹.
Same read-out and setting: the value for C11A U30G A53U was 0.00017 ± 4.1e-05 s⁻¹; that for A36G A39G G40U was below 1e-05 s⁻¹.
Still for that read-out and setting: the value for A39U A48G G60C was below 1e-05 s⁻¹; that for A33G G37A A52U was below 1e-05 s⁻¹; that for C11U G29A U30G U55A G63C A64G was below 1e-05 s⁻¹.
C10A C16G U31C G37C C58A G59U: the “self-cleavage kobs at 2500 uM GlcN6P” value is below 1e-05 s⁻¹.
For A6U C10U A15U A53G, the “self-cleavage kobs at 2500 uM GlcN6P” value is below 1e-05 s⁻¹.
With A14U A33U C50G G66U, the “self-cleavage kobs at 2500 uM GlcN6P” value turned out to be 6.05e-05 ± 2.7e-05 s⁻¹.
As for U31G A53U C70A, the “self-cleavage kobs at 2500 uM GlcN6P” value is 0.000207 ± 6.4e-05 s⁻¹.
Same read-out and setting: the value for A6G G9A G38A A48G A53G C71G was below 1e-05 s⁻¹; that for C16U C50G U54A was 9.89e-05 ± 3.1e-05 s⁻¹.
On the same count and under the same terms, the value for A36C U57C C67U was below 1e-05 s⁻¹.
Regarding G7A C8U C10U A12C A36C U49G G60C A64U, the “self-cleavage kobs at 2500 uM GlcN6P” value was below 1e-05 s⁻¹.
Same read-out and setting: the figure for C8A C11U A48U U56A is below 1e-05 s⁻¹; for C8U A33C G35C U56G U65C it is below 1e-05 s⁻¹.
G43C G51C U65A: the “self-cleavage kobs at 2500 uM GlcN6P” value was below 1e-05 s⁻¹.
Take A14G A42G C67A: the “self-cleavage kobs at 2500 uM GlcN6P” value was 0.00856 ± 0.0041 s⁻¹.
Regarding A53G U57A C68A, the “self-cleavage kobs at 2500 uM GlcN6P” value was found to be 4.93e-05 ± 2.2e-05 s⁻¹.
Same read-out and setting: the value for C11U A39G A42G was 0.00125 ± 0.00043 s⁻¹.
For A14U A39G G41U, the “self-cleavage kobs at 2500 uM GlcN6P” value stood at 0.000106 ± 2.6e-05 s⁻¹.
In the case of G35U C58A A64U, the “self-cleavage kobs at 2500 uM GlcN6P” value is below 1e-05 s⁻¹.
Still for that read-out and setting: the figure for A14G G41U C71U is 0.00102 ± 0.00029 s⁻¹; for G9U G40A U45G C50A it is below 1e-05 s⁻¹; for G7C G51U G59A it is below 1e-05 s⁻¹.
The same measure, in the same setting: the value for C50U G51C A53U was below 1e-05 s⁻¹; that for A6G U54C G63C was below 1e-05 s⁻¹; that for A48G U56A U69G was 7.7e-05 ± 2.2e-05 s⁻¹.
Consider A15G G59C G60U, for which the “self-cleavage kobs at 2500 uM GlcN6P” value is below 1e-05 s⁻¹.
C8A G32A A33U U55A: the “self-cleavage kobs at 2500 uM GlcN6P” value is below 1e-05 s⁻¹.
In the case of G21A C70U, the “self-cleavage kobs at 2500 uM GlcN6P” value was 0.00398 ± 0.0016 s⁻¹.
Regarding A15U U54G C58A, the “self-cleavage kobs at 2500 uM GlcN6P” value was found to be 3.84e-05 ± 1.4e-05 s⁻¹.
The same measure, in the same setting: the figure for A14C C50A A53U C70G is 4.72e-05 ± 2e-05 s⁻¹; for G7A G37A G66U it is below 1e-05 s⁻¹.
Consider G35C C50A C67G, for which the “self-cleavage kobs at 2500 uM GlcN6P” value is below 1e-05 s⁻¹.
On the same count and under the same terms, the value for G29U U47A U69G was 7.38e-05 ± 1.7e-05 s⁻¹; that for U30A A36C U45C was below 1e-05 s⁻¹.
Still for that read-out and setting: the figure for C8G G35U A52G C61A is below 1e-05 s⁻¹.
Still for that read-out and setting: the value for C10U C11A G40A was below 1e-05 s⁻¹; that for A42C U46G C71G was below 1e-05 s⁻¹; that for C8U G37A C50G A64G C71A was 0.000244 ± 6.7e-05 s⁻¹.
Consider C8G A14C C71G, for which the “self-cleavage kobs at 2500 uM GlcN6P” value is below 1e-05 s⁻¹.
Same read-out and setting: the figure for G7C A15C G32U C58U C61U is below 1e-05 s⁻¹; for A15U U55G A64U C71U it is below 1e-05 s⁻¹.
Still for that read-out and setting: the figure for A15G A36G G44U G60C is below 1e-05 s⁻¹; for G13U G40A it is 6e-05 ± 1.2e-05 s⁻¹.
On to C8G U30C A64C, for which the “self-cleavage kobs at 2500 uM GlcN6P” value was below 1e-05 s⁻¹.
The same measure, in the same setting: the figure for G37C G40A C50G is below 1e-05 s⁻¹.
For the variant C34G G63A C67A, the “self-cleavage kobs at 2500 uM GlcN6P” value is below 1e-05 s⁻¹.
The same measure, in the same setting: the value for G66U C68U C71G was 5.06e-05 ± 2.1e-05 s⁻¹; that for G37U U56C G60C C61G was below 1e-05 s⁻¹; that for A52U A53G A64G was 5.47e-05 ± 1.7e-05 s⁻¹.
Consider G7U G32C C34U, for which the “self-cleavage kobs at 2500 uM GlcN6P” value was below 1e-05 s⁻¹.
Same read-out and setting: the value for A36U G38A U47C was below 1e-05 s⁻¹; that for U47C A52U A64G was 3.84e-05 ± 1.6e-05 s⁻¹; that for U31G G44A U46A G62C was below 1e-05 s⁻¹.

In a further data set the parent is B1. The data set can be described thus: self-cleavage kobs at 10000 uM GlcN6P; higher = faster cleavage; RNA array. The conditions noted are these: with glucosamine-6-phosphate. An outline of the steps:
as §1
Consider A36G A39G G40U, for which the “self-cleavage kobs at 10000 uM GlcN6P” value was below 1e-05 s⁻¹.
As to G9U U65C, the “self-cleavage kobs at 10000 uM GlcN6P” value is below 1e-05 s⁻¹.
The same measure, in the same setting: the value for G7C A15C G32U C58U C61U was below 1e-05 s⁻¹; that for G13U G40A was 0.000183 ± 3.6e-05 s⁻¹.
On to C8G U30C A64C, for which the “self-cleavage kobs at 10000 uM GlcN6P” value is below 1e-05 s⁻¹.
On the same count and under the same terms, the figure for U47A C50G C67U C71A is 0.000134 ± 2.8e-05 s⁻¹; for A36U G38A U47C it is below 1e-05 s⁻¹.
